Kd, koff and kon data for 17 molecules are collected here from US20220033484A1 (FAPON BIOTECH, published 2022).

B1: WT 1-51 (antibody, V domains shown)
VH: EVQLQQSGPELVKPGASVKMSCKASGYSFTIYVVHWVKQKPGQGLEWIGYIQPYIDGTRYNEKFKGKATLTVDKSSSTAFMELSSLTSEDSAVYYCARTGYGQYGLAWLAYWGQGTLVTVSA
VL: QAVVIQESALTTSPGETVTLTCRSSSGAATTSQYANWVQEKPDHLFTGLIGGSNNRAPGVPARFSGSLIGDKAALTITGAQTEDEAIYFCAIVYSNHWVFGGGTKLTVLG
notes: Heavy chain built as m63
B2: Mutation 1-15 (antibody, V domains shown)
VH: EVQLQQSGPELVKPGASVKMSCKASGYTFTLYVVHWVKQKPGQGLEWIGYINPYIDGTKYNEKFKGKATLTVDKSSSTAFMELSSLTSEDSAVYYCARSGYGQYGLAWLAYWGQGTLVTVSA
VL: QAVVIQESALTTSPGETVTLTCRSSTGAVTTSNYANWVQEKPDHLFTGLIGGSQNRAPGVPARFSGSLIGDKAALTITGAQTEDEAIYFCALVYSNNWVFGGGTKLTVLG
notes: Built as m8
B3: Mutation 1-8 (antibody, V domains shown)
VH: EVQLQQSGPELVKPGASVKMSCKASGYTFTIYVIHWVKQKPGQGLEWIGYIQPYLDGTKYNEKFKGKATLTVDKSSSTAFMELSSLTSEDSAVYYCARSGYGGYGLAWLAYWGQGTLVTVSA
VL: QAVVIQESALTTSPGETVTLTCRSSTGAATTSQYANWVQEKPDHLFTGLIGGSNNRAPGVPARFSGSLIGDKAALTITGAQTEDEAIYFCALVYSNQWVFGGGTKLTVLG
notes: Built as m8
B4: Mutation 1-5 (antibody, V domains shown)
VH: EVQLQQSGPELVKPGASVKMSCKASGYTFTLYVIHWVKQKPGQGLEWIGYIQPYIDGTKYNEKFKGKATLTVDKSSSTAFMELSSLTSEDSAVYYCARSGYGGYGLAWLAYWGQGTLVTVSA
VL: QAVVIQESALTTSPGETVTLTCRSSTGAATTSNYANWVQEKPDHLFTGLIGGSQNRAPGVPARFSGSLIGDKAALTITGAQTEDEAIYFCALVYSNHWVFGGGTKLTVLG
notes: Built as m8
B5: Mutation 1-9 (antibody, V domains shown)
VH: EVQLQQSGPELVKPGASVKMSCKASGYTFTLYVVHWVKQKPGQGLEWIGYIQPYLDGTKYNEKFKGKATLTVDKSSSTAFMELSSLTSEDSAVYYCARSGYGQYGLAWLAYWGQGTLVTVSA
VL: QAVVIQESALTTSPGETVTLTCRSSTGAATTSNYANWVQEKPDHLFTGLIGGSQNRAPGVPARFSGSLIGDKAALTITGAQTEDEAIYFCALVYSNHWVFGGGTKLTVLG
notes: Built as m8
B6: Mutation 1-4 (antibody, V domains shown)
VH: EVQLQQSGPELVKPGASVKMSCKASGYTFTLYVLHWVKQKPGQGLEWIGYIQPYIDGTKYNEKFKGKATLTVDKSSSTAFMELSSLTSEDSAVYYCARSGYGNYGLAWLAYWGQGTLVTVSA
VL: QAVVIQESALTTSPGETVTLTCRSSTGAATTSQYANWVQEKPDHLFTGLIGGSNNRAPGVPARFSGSLIGDKAALTITGAQTEDEAIYFCALVYSNNWVFGGGTKLTVLG
notes: Built as m8
B7: Mutation 1-10 (antibody, V domains shown)
VH: EVQLQQSGPELVKPGASVKMSCKASGYTFTLYVLHWVKQKPGQGLEWIGYIQPYLDGTKYNEKFKGKATLTVDKSSSTAFMELSSLTSEDSAVYYCARSGYGNYGLAWLAYWGQGTLVTVSA
VL: QAVVIQESALTTSPGETVTLTCRSSTGAVTTSQYANWVQEKPDHLFTGLIGGSNNRAPGVPARFSGSLIGDKAALTITGAQTEDEAIYFCALVYSNQWVFGGGTKLTVLG
notes: Built as m8
B8: Mutation 1-13 (antibody, V domains shown)
VH: EVQLQQSGPELVKPGASVKMSCKASGYTFTIYVLHWVKQKPGQGLEWIGYINPYIDGTKYNEKFKGKATLTVDKSSSTAFMELSSLTSEDSAVYYCARSGYGNYGLAWLAYWGQGTLVTVSA
VL: QAVVIQESALTTSPGETVTLTCRSSTGAATTSNYANWVQEKPDHLFTGLIGGSQNRAPGVPARFSGSLIGDKAALTITGAQTEDEAIYFCALVYSNNWVFGGGTKLTVLG
notes: Built as m8
B9: Mutation 1-3 (antibody, V domains shown)
VH: EVQLQQSGPELVKPGASVKMSCKASGYTFTLYVVHWVKQKPGQGLEWIGYIQPYIDGTKYNEKFKGKATLTVDKSSSTAFMELSSLTSEDSAVYYCARSGYGQYGLAWLAYWGQGTLVTVSA
VL: QAVVIQESALTTSPGETVTLTCRSSTGAVTTSNYANWVQEKPDHLFTGLIGGSQNRAPGVPARFSGSLIGDKAALTITGAQTEDEAIYFCALVYSNQWVFGGGTKLTVLG
notes: Built as m8
B10: Mutation 1-2 (antibody, V domains shown)
VH: EVQLQQSGPELVKPGASVKMSCKASGYTFTIYVIHWVKQKPGQGLEWIGYIQPYIDGTKYNEKFKGKATLTVDKSSSTAFMELSSLTSEDSAVYYCARSGYGGYGLAWLAYWGQGTLVTVSA
VL: QAVVIQESALTTSPGETVTLTCRSSTGAVTTSQYANWVQEKPDHLFTGLIGGSNNRAPGVPARFSGSLIGDKAALTITGAQTEDEAIYFCALVYSNNWVFGGGTKLTVLG
notes: Built as m8
B11: Mutation 1-1 (antibody, V domains shown)
VH: EVQLQQSGPELVKPGASVKMSCKASGYTFTIYVLHWVKQKPGQGLEWIGYIQPYIDGTKYNEKFKGKATLTVDKSSSTAFMELSSLTSEDSAVYYCARSGYGNYGLAWLAYWGQGTLVTVSA
VL: QAVVIQESALTTSPGETVTLTCRSSTGAATTSNYANWVQEKPDHLFTGLIGGSQNRAPGVPARFSGSLIGDKAALTITGAQTEDEAIYFCALVYSNQWVFGGGTKLTVLG
notes: built as m3
B12: Mutation 1-14 (antibody, V domains shown)
VH: EVQLQQSGPELVKPGASVKMSCKASGYTFTIYVIHWVKQKPGQGLEWIGYINPYIDGTKYNEKFKGKATLTVDKSSSTAFMELSSLTSEDSAVYYCARSGYGGYGLAWLAYWGQGTLVTVSA
VL: QAVVIQESALTTSPGETVTLTCRSSTGAVTTSQYANWVQEKPDHLFTGLIGGSNNRAPGVPARFSGSLIGDKAALTITGAQTEDEAIYFCALVYSNHWVFGGGTKLTVLG
notes: Built as m8
B13: Mutation 1-18 (antibody, V domains shown)
VH: EVQLQQSGPELVKPGASVKMSCKASGYTFTIYVVHWVKQKPGQGLEWIGYINPYLDGTKYNEKFKGKATLTVDKSSSTAFMELSSLTSEDSAVYYCARSGYGQYGLAWLAYWGQGTLVTVSA
VL: QAVVIQESALTTSPGETVTLTCRSSTGAVTTSQYANWVQEKPDHLFTGLIGGSNNRAPGVPARFSGSLIGDKAALTITGAQTEDEAIYFCALVYSNHWVFGGGTKLTVLG
notes: Built as m8
B14: Mutation 1-16 (antibody, V domains shown)
VH: EVQLQQSGPELVKPGASVKMSCKASGYTFTLYVLHWVKQKPGQGLEWIGYINPYLDGTKYNEKFKGKATLTVDKSSSTAFMELSSLTSEDSAVYYCARSGYGNYGLAWLAYWGQGTLVTVSA
VL: QAVVIQESALTTSPGETVTLTCRSSTGAATTSQYANWVQEKPDHLFTGLIGGSNNRAPGVPARFSGSLIGDKAALTITGAQTEDEAIYFCALVYSNHWVFGGGTKLTVLG
notes: Built as m8
B15: Mutation 1-20 (antibody, V domains shown)
VH: EVQLQQSGPELVKPGASVKMSCKASGYTFTIYVIHWVKQKPGQGLEWIGYIYPYIDGTKYNEKFKGKATLTVDKSSSTAFMELSSLTSEDSAVYYCARSGYGGYGLAWLAYWGQGTLVTVSA
VL: QAVVIQESALTTSPGETVTLTCRSSTGAATTSQYANWVQEKPDHLFTGLIGGSNNRAPGVPARFSGSLIGDKAALTITGAQTEDEAIYFCALVYSNNWVFGGGTKLTVLG
notes: Built as m8
B16: Mutation 1-7 (antibody, V domains shown)
VH: EVQLQQSGPELVKPGASVKMSCKASGYTFTIYVLHWVKQKPGQGLEWIGYIQPYLDGTKYNEKFKGKATLTVDKSSSTAFMELSSLTSEDSAVYYCARSGYGNYGLAWLAYWGQGTLVTVSA
VL: QAVVIQESALTTSPGETVTLTCRSSTGAVTTSNYANWVQEKPDHLFTGLIGGSQNRAPGVPARFSGSLIGDKAALTITGAQTEDEAIYFCALVYSNHWVFGGGTKLTVLG
notes: Built as m8
B17: Mutation 1-6 (antibody, V domains shown)
VH: EVQLQQSGPELVKPGASVKMSCKASGYTFTIYVVHWVKQKPGQGLEWIGYIQPYLDGTKYNEKFKGKATLTVDKSSSTAFMELSSLTSEDSAVYYCARSGYGQYGLAWLAYWGQGTLVTVSA
VL: QAVVIQESALTTSPGETVTLTCRSSTGAVTTSQYANWVQEKPDHLFTGLIGGSNNRAPGVPARFSGSLIGDKAALTITGAQTEDEAIYFCALVYSNNWVFGGGTKLTVLG
notes: Built as m8

By Kd is commonly meant the free concentration of one partner at which half of the binding sites on the other are occupied at equilibrium, for simple one-to-one binding. The term koff denotes the first-order rate constant of dissociation. For orientation: kon means a measure of how fast the partners come together.

For this test, the target named is T1, cTnI quality control product recombinant protein (human, UniProt P19429 2-210, limits assumed).
T1 construct: treated as the same molecule; also called cTnI antigen; cardiac troponin I
T1 sequence (P19429 2-210 limits assumed): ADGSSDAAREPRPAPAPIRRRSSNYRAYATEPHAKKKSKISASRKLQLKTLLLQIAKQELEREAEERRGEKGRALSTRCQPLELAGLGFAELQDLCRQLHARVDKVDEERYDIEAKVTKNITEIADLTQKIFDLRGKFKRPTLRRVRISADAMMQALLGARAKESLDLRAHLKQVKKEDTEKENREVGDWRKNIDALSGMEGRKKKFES
Briefly: AMC sensor, antibody immobilised, cTnI in solution. The method, then:
Operating process: it is equilibrated in Buffer 1 (PBST) for 60 s, the antibody is immobilized in an antibody solution for 300 s, incubated in Buffer 2 (PBST) for 180 s, bound in antigen solution for 420 s, dissociated in the Buffer 2 for 1200 s, 10 mM of GLY solution with pH 1.69 and Buffer 3 are used for sensor regeneration, and data is output. KD represents an equilibrium dissociation constant, namely the affinity; Kon represents a binding rate; and Kd is represents a dissociation rate.
For the molecule B1, the Kd turned out to be 35.4 nM, the koff is 0.000527 s⁻¹ and the on-rate constant (kon) was 14900 M⁻¹ s⁻¹.

For B2, the equilibrium dissociation constant (Kd) came to 0.759 nM, the dissociation rate constant (koff) came to 4.7e-05 s⁻¹ and the kon is 61900 M⁻¹ s⁻¹.

B3: the Kd was found to be 9.31 nM, the koff was found to be 0.000244 s⁻¹ and the association rate constant (kon) worked out at 26200 M⁻¹ s⁻¹.

Regarding B4, the Kd amounted to 1.2 nM, the koff was 4.4e-05 s⁻¹ and the kon was determined as 36800 M⁻¹ s⁻¹.

Turning to B5, the Kd is 5.43 nM, the koff amounted to 0.00024 s⁻¹ and the kon turned out to be 44200 M⁻¹ s⁻¹.

For B6, the equilibrium dissociation constant (Kd) is 5.03 nM, the koff was 0.000232 s⁻¹ and the association rate constant (kon) came out at 46200 M⁻¹ s⁻¹.

With B7, the Kd is 0.731 nM, the koff turned out to be 4.12e-05 s⁻¹ and the on-rate (kon) was 56300 M⁻¹ s⁻¹.

As for B8, the Kd was determined as 0.139 nM, the off-rate constant (koff) was determined as 3.79e-06 s⁻¹ and the kon was found to be 27300 M⁻¹ s⁻¹.

For the molecule B9, the Kd worked out at 0.399 nM, the koff was determined as 9.54e-06 s⁻¹ and the kon was determined as 23900 M⁻¹ s⁻¹.

On to B10, for which the Kd was found to be 7.64 nM, the koff was found to be 0.00061 s⁻¹ and the kon amounted to 79900 M⁻¹ s⁻¹.

As to B11, the Kd was determined as 8.27 nM, the koff is 0.000712 s⁻¹ and the association rate constant (kon) is 86100 M⁻¹ s⁻¹.

As for B12, the Kd worked out at 0.866 nM, the koff was 2.21e-05 s⁻¹ and the kon stood at 25500 M⁻¹ s⁻¹.

As for B13, the Kd is 9.31 nM, the koff came to 0.000586 s⁻¹ and the kon stood at 63000 M⁻¹ s⁻¹.

As to B14, the dissociation constant (Kd) was found to be 6.48 nM, the koff came to 0.000222 s⁻¹ and the association rate constant (kon) is 34300 M⁻¹ s⁻¹.

For the molecule B15, the Kd was 7.74 nM, the off-rate (koff) stood at 0.000542 s⁻¹ and the kon was determined as 70000 M⁻¹ s⁻¹.

On to B16, for which the Kd was found to be 2.77 nM, the koff stood at 0.000176 s⁻¹ and the association rate constant (kon) amounted to 63600 M⁻¹ s⁻¹.

As to B17, the Kd was 0.697 nM, the dissociation rate constant (koff) turned out to be 5.34e-05 s⁻¹ and the kon was found to be 76600 M⁻¹ s⁻¹.
